Literature values as cited in PMC9255719.
Several values for one entry are separate records, joined by “and”; a condition that tells them apart may be missing. Equal values may be shown once. Read-outs that look alike come from different tables or passages of the source. Each block holds one substance with its values, some of them ahead of it.

Assays:
FcRn (Rattus norvegicus) [1] = molecular target: FcRn (Rattus norvegicus) (UniProt P13599)
FcRn (Homo sapiens) [2] = molecular target: FcRn (Homo sapiens) (UniProt P55899)
FcRn (Rattus norvegicus) [3] = molecular target: FcRn (Rattus norvegicus) (UniProt P13599); remark: listed apart in the source
FcRn (Rattus norvegicus) [4] = molecular target: FcRn (Rattus norvegicus) (UniProt P13599); remark: listed apart in the source
FcRn (Rattus norvegicus) [5] = molecular target: FcRn (Rattus norvegicus) (UniProt P13599); remark: listed apart in the source
FcRn (Rattus norvegicus) [6] = molecular target: FcRn (Rattus norvegicus) (UniProt P13599); remark: listed apart in the source
FcRn (Rattus norvegicus) [7] = molecular target: FcRn (Rattus norvegicus) (UniProt P13599); remark: listed apart in the source
FcRn (Rattus norvegicus) [8] = molecular target: FcRn (Rattus norvegicus) (UniProt P13599); remark: listed apart in the source
FcRn (Rattus norvegicus) [9] = molecular target: FcRn (Rattus norvegicus) (UniProt P13599); remark: listed apart in the source
FcRn (Rattus norvegicus) [10] = molecular target: FcRn (Rattus norvegicus) (UniProt P13599); remark: listed apart in the source
cubilin = cubilin (UniProt O60494)
FcRn (Rattus norvegicus) [11] = molecular target: FcRn (Rattus norvegicus) (UniProt P13599); remark: listed apart in the source
FcRn (Rattus norvegicus) [12] = molecular target: FcRn (Rattus norvegicus) (UniProt P13599); remark: listed apart in the source
FcRn (Rattus norvegicus) [13] = molecular target: FcRn (Rattus norvegicus) (UniProt P13599); remark: listed apart in the source
FcRn (Rattus norvegicus) [14] = molecular target: FcRn (Rattus norvegicus) (UniProt P13599); remark: listed apart in the source
FcRn (Homo sapiens) [15] = molecular target: FcRn (Homo sapiens) (UniProt P55899); remark: listed apart in the source
FcRn (Rattus norvegicus) [16] = molecular target: FcRn (Rattus norvegicus) (UniProt P13599); remark: listed apart in the source
[17] = molecular target: Albumin-Alexa 568 conjugate (4:1) (UniProt P02770); test: not stated in this review (data reproduced from ref [155]); details: pH 6; not stated (pH 6 and pH 7.4)
[18] = molecular target: Albumin-Alexa 647 maleimide conjugate (1:1) (UniProt P02770); test: as above; details: pH 6; not stated (pH 6 and pH 7.4)
[19] = molecular target: Albumin-CF-594 maleimide conjugate (dye:albumin 1:3) (UniProt P02770); test: as above; details: pH 6; not stated (pH 6 and pH 7.4)
[20] = molecular target: Albumin-Texas Red conjugate (1:1) (UniProt P02770); test: as above; details: not stated (pH 6 and pH 7.4)
[21] = molecular target: Albumin-Texas Red-X conjugate (1:1) (UniProt P02770); test: as above; details: pH 6; not stated (pH 6 and pH 7.4)
[22] = molecular target: Albumin-Texas Red-X conjugate (2:1) (UniProt P02770); test: as above; details: pH 6; not stated (pH 6 and pH 7.4)
[23] = molecular target: Albumin-Texas Red-X conjugate (4:1) (UniProt P02770); test: as above; details: pH 6; not stated (pH 6 and pH 7.4)
[24] = molecular target: Albumin-Texas Red-X conjugate (5:1) (UniProt P02770); test: as above; details: pH 6; not stated (pH 6 and pH 7.4)
[25] = molecular target: Albumin-fluorescein conjugate (6.4:1) (UniProt P02770); test: as above; details: not stated (pH 6 and pH 7.4)
[26] = molecular target: Serum albumin, unlabelled ('No dye') (UniProt P02770); test: as above; details: not stated (pH 6 and pH 7.4)

Chain of UniProt P13599 (P13599 23-298): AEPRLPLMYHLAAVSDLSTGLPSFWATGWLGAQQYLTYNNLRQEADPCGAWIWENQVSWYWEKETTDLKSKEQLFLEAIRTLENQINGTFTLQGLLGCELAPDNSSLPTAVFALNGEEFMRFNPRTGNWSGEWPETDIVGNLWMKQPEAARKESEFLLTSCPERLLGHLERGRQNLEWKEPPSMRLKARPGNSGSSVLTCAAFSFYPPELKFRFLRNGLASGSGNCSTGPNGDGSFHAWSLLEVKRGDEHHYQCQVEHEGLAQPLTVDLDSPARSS
Chain of UniProt P55899 (P55899 24-297): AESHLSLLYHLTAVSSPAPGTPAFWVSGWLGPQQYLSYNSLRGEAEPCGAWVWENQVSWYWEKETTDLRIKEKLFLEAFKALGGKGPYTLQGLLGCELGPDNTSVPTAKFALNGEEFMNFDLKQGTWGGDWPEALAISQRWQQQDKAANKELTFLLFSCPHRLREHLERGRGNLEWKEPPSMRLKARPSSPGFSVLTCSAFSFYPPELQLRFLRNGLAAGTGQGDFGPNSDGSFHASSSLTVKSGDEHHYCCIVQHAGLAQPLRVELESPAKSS
Chain of UniProt O60494 (O60494 36-3623): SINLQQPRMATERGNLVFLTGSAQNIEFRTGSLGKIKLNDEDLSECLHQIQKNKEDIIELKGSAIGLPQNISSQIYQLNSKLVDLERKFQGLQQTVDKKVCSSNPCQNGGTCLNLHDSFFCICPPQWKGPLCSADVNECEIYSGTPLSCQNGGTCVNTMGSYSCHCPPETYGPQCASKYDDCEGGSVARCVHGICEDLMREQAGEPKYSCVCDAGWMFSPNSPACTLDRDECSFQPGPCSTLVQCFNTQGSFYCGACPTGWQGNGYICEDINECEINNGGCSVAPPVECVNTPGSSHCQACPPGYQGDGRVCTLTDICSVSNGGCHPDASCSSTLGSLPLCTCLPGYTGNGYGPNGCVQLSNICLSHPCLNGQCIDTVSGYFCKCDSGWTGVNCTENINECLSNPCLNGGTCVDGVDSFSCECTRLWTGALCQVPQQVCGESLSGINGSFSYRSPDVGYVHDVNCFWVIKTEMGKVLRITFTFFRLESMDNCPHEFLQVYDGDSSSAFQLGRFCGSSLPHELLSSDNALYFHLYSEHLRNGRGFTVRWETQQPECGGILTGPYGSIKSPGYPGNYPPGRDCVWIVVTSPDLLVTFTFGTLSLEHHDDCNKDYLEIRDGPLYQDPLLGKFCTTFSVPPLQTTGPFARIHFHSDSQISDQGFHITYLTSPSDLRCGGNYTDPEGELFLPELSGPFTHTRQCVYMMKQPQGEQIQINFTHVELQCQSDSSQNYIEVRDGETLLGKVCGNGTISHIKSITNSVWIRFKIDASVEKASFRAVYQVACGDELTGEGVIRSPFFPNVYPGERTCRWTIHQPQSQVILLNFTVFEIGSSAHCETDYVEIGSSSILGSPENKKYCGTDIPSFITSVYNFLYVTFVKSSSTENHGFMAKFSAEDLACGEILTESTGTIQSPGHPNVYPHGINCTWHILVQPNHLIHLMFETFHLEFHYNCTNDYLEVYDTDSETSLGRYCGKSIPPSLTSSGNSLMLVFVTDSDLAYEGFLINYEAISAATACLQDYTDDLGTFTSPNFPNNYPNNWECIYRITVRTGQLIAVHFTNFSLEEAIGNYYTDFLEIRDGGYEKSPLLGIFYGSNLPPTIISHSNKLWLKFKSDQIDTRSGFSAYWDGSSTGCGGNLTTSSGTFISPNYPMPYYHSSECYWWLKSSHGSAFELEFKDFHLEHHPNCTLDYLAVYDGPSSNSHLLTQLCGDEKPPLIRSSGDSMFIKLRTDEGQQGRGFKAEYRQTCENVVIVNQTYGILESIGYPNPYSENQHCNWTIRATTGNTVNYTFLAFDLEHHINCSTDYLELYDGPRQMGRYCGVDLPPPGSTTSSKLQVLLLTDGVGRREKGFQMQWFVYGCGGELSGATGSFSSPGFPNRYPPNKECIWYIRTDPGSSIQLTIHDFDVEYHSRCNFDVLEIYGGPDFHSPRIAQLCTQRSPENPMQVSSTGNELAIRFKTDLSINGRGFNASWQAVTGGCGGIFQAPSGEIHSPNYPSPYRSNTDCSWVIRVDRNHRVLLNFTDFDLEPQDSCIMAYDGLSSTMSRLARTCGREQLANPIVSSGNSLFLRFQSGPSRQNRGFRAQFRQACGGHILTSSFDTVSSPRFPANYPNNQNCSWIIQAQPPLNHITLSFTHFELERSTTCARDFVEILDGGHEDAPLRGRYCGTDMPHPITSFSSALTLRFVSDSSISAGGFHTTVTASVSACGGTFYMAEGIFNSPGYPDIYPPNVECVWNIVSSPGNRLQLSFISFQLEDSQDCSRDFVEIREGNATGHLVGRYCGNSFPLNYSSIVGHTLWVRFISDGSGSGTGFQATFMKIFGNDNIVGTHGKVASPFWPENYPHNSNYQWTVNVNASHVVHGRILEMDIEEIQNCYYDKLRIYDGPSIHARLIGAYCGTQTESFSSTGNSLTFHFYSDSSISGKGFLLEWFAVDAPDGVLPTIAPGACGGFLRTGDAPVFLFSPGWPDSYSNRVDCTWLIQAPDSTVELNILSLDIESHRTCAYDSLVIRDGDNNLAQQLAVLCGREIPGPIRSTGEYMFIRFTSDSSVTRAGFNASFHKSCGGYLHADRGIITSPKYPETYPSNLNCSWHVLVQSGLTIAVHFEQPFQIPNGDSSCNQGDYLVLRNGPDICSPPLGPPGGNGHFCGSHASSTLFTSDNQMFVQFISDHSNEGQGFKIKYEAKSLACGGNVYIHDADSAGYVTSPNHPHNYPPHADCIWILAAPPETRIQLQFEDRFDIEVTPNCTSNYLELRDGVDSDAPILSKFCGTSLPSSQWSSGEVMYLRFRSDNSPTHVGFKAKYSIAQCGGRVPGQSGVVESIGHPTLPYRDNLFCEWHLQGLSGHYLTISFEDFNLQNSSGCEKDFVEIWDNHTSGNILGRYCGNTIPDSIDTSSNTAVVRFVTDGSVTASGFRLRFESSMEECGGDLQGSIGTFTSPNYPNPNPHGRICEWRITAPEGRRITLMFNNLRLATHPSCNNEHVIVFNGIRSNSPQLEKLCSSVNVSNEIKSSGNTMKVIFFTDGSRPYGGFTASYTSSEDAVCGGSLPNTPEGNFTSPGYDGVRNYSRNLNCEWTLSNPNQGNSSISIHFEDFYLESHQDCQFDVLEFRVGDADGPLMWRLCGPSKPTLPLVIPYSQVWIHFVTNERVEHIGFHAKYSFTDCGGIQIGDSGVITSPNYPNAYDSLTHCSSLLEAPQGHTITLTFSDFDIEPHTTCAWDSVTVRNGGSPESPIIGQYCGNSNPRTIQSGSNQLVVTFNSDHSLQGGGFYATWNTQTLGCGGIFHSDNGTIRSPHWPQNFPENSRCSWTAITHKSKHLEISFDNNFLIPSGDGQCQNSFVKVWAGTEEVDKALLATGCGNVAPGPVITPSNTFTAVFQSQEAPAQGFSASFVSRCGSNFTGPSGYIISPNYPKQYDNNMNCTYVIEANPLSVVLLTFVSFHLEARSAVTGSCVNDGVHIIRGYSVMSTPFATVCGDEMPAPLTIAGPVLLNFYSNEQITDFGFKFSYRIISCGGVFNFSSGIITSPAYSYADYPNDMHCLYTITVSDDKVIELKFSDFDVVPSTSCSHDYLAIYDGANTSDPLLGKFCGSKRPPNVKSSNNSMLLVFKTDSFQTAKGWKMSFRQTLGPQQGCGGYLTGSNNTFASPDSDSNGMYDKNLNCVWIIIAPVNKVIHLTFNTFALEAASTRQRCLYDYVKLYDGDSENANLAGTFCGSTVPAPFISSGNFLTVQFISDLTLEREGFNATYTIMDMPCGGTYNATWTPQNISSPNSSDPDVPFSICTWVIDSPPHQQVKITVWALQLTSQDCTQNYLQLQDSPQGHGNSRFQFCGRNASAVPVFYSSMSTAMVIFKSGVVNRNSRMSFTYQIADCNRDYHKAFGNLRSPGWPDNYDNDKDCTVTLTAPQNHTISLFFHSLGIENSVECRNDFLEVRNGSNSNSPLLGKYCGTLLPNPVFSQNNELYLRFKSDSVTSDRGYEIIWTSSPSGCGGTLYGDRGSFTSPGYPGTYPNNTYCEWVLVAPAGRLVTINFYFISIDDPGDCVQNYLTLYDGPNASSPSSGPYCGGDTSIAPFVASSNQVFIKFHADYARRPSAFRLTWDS

Substance: albumin (from UniProt P14639)
- Kd (FcRn (Rattus norvegicus) [10]): > 100 µM

Substance: albumin (from UniProt P02768)
- Kd (cubilin): 0.63 µM
- Kd (FcRn (Rattus norvegicus) [11]): > 100 µM

Substance: albumin (from UniProt P08835)
- Kd (FcRn (Homo sapiens) [15]): > 50 µM
- Kd (FcRn (Rattus norvegicus) [16]): > 100 µM

Substance: Neonatal Fc receptor (FcRn), rat (rFcRn)
- Kd [17]: 17 µM
- Kd [18]: 11 µM
- Kd [19]: 1.5 µM
- Kd ([20]; pH 6): 6 µM
- Kd ([20]; pH 7.4): 11 µM
- Kd [21]: 5.4 µM
- Kd [22]: 10 µM
- Kd [23]: > 40 µM
- Kd [24]: > 100 µM
- Kd ([25]; pH 6): 69 µM
- Kd ([25]; pH 7.4): 1 µM
- Kd ([26]; pH 6): 11.6 µM
- Kd ([26]; pH 7.4): > 100 µM

Next, values leading:

- Kd (FcRn (Rattus norvegicus) [1]): 11 µM and 6 µM
- Kd (FcRn (Homo sapiens) [2]): 1.1 µM
- Kd (FcRn (Rattus norvegicus) [3]): 11.6 µM
- Kd (FcRn (Rattus norvegicus) [4]): > 100 µM
- Kd (FcRn (Rattus norvegicus) [5]): 1.5 µM
- Kd (FcRn (Rattus norvegicus) [6]): 17 µM
- Kd (FcRn (Rattus norvegicus) [7]): > 40 µM
- Kd (FcRn (Rattus norvegicus) [8]): 10 µM
- Kd (FcRn (Rattus norvegicus) [9]): 5.4 µM
Substance: albumin (from UniProt P02770)

- Kd (FcRn (Rattus norvegicus) [12]): > 100 µM
Substance: albumin (from UniProt P07724)

- Kd (FcRn (Rattus norvegicus) [13]): 11.8 µM
Substance: albumin (from UniProt P49065)

- Kd (FcRn (Rattus norvegicus) [14]): > 100 µM
Substance: albumin (from UniProt P02769)
